From patent US20190352376A1

Biological target: peptide of Example 1 (influenza virus)
Assay: SPR, mAb captured on anti-mouse Fc, peptide injected

B1: F211-9D1 (antibody, V domains shown)
VL: DIVMSQSPSSLAVSVGEKVTMSCKSSQSLLNSRNQKNHLAWYQQKPGQSPKLLIYWASTRESGVPDRFSGDGSGTDFTLTISSVKAEDLAVYYCQQYYTYRTFGGGTKLEIK
VH: DVQLQESGPGLVKPSQSLSLTCSVTGYSITSDYYWNWIRQFPGNKLEWMAYIGYDGSKNYNPSLKNRISITRDTSKNQFFLKLNSVTTDDTATYYCTRDRANWDDYFDYWGQGTTLTVSS
- Kd: 393 pM
